In paper PMC3115958 (2011) one finds Kd data, which are given here for one molecule.

The test has as its target wild type sortilin expressed in COS-7 cells (UniProt Q99523 78-831).

Sequence of wild type sortilin expressed in COS-7 cells (Q99523 78-831): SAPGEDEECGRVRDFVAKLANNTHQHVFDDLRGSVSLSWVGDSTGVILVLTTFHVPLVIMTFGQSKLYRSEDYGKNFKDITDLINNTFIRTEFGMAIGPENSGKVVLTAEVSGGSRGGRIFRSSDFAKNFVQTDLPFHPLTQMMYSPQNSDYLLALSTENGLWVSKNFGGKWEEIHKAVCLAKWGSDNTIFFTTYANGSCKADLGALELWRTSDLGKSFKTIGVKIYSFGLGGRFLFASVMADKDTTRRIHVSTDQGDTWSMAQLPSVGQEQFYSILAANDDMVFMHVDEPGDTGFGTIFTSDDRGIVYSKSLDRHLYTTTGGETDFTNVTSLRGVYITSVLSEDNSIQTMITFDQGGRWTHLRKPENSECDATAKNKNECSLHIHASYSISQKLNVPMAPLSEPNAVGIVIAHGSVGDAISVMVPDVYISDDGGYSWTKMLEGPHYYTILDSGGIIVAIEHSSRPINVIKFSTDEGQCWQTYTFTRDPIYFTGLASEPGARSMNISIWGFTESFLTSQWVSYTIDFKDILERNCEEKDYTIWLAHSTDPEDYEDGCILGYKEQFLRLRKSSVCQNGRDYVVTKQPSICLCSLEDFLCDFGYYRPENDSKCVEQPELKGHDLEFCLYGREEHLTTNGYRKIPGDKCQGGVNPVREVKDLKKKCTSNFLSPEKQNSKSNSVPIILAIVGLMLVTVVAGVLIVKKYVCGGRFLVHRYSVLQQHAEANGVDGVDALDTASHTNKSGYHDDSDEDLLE

B1: alkaline phosphatase tagged progranulin C100 (granulin E and its flanking region, aa 494-593) (domain or fragment)
chain: SCEKEVVSAQPATFLARSPHVGVKDVECGEGHFCHDNQTCCRDNRQGWACCPYRQGVCCADRRHCCPAGFRCAARGTKCLRREAPRWDAPLRDPALRQLL
On to B1, for which the affinity, expressed as Kd, was 3 nM. This lies in the single-digit nanomolar range.
